Results on 1 substance are retold here after patent US20210079558A1.

This test concerns the target Protein A expressed on Staphylococcus aureus (Staphylococcus aureus) (UniProt P38507). In words: yeast display; one round of selection with cell-surface biotinylated S. aureus and magnetic streptavidin-coated beads; GFP+ yeast counted by flow cytometry.

Substance “Fc region of the human IgG1 protein N297Q (aglycosylated) mutant, displayed on the surface of yeast” gave a fold enrichment of GFP+ yeast of 30 fold.
